Experimental data from US20050112168A1 (UNIVERSITY OF ROCHESTER, published 2005).
Ends that are not written are not given here.

Columns and labels:
[1] = molecular target: T1, purified type V tartrate resistant acid phosphatase (TRAP), also known as uteroferrin (UniProt P09889 22-340, limits assumed); test: modified phage ELISA on immobilised TRAP, antibody to the phage coat
T1 construct: Purified protein used as immobilised bait, in ELISA, Scatchard, Far-Western and GST pull-down; also called type V TRAP; purified TRAP
T1 sequence (looked up): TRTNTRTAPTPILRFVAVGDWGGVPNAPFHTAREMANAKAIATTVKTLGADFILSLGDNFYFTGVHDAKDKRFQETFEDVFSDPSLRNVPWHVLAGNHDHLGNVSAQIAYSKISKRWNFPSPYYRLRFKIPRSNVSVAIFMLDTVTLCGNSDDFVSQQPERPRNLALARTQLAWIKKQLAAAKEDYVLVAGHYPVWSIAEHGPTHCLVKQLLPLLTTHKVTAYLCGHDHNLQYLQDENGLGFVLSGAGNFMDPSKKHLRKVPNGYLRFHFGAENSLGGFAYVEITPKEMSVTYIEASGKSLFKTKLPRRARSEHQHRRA
From the text: The binding was compared to wild type phage containing no expressed oligopeptides.

[2] = molecular target: T1, purified type V tartrate resistant acid …; test: M13 random 12-mer phage display, three rounds of bio-panning on immobilised TRAP
From the text: After three rounds of bio-panning, elution and amplification 44 phage clones were selected at random and sequenced.

bovine serum albumin = molecular target: T2, bovine serum albumin (bovine, UniProt P02769 25-607); test: Far-Western, proteins on membrane probed with Clone 5 phage
T2 construct: Control; also called BSA
T2 sequence (P02769 25-607 limits assumed): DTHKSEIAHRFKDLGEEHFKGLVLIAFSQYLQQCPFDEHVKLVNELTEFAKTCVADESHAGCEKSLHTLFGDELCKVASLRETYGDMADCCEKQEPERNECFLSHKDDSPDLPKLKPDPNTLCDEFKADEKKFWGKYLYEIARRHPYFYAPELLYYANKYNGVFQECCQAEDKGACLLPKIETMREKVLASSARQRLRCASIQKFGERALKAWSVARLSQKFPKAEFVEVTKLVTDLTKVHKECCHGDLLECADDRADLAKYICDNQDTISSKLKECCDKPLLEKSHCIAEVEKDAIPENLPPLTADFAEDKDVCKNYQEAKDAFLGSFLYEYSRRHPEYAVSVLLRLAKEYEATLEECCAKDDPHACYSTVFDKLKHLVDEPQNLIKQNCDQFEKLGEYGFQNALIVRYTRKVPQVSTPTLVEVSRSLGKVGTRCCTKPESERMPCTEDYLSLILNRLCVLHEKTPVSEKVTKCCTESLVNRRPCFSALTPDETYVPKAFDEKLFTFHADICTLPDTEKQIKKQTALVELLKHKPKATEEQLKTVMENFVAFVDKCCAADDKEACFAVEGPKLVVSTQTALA
Method: (§1) They were then transferred to PVDF membranes (NEN) and incubated with 10¹⁰ phage particles from selected clones at 4° C. for overnight. The membrane was washed in PBS with 0.5% [v/v] […] An anti-M13 phage peroxidase-conjugated antibody at a dilution of 1:15000 was added and gently swirled at room temperature for an hour. […] Detection of the phage/antibody complex was accomplished using ECL-plus (Amersham) with the membrane being exposed to Kodak Biomax MR film for 30 seconds.

RNase A = molecular target: T3, RNase A (UniProt P61823 27-150); test: as above
T3 construct: Control
T3 sequence (looked up): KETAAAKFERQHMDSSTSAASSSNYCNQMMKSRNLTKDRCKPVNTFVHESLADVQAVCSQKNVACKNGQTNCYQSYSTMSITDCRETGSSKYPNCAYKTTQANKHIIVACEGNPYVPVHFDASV
Method: as §1

[3] = molecular target: T1, purified type V tartrate resistant acid …; test: Scatchard-type analysis, immobilised TRAP and increasing phage titer, bound phage counted by plaque assay
Method: After a one hour room temperature incubation, each well was washed with PBS with 0.5% [v/v] Tween 20 four times. The bound phage where then amplified directly in the wells by the addition of 100 ul of log-phase ER2537 (M13 bacteria host). The number of phage in each well was then determined with a standard plaque assay. […] The bound and free fraction of phage were then determined.

type II TGFβ receptor = molecular target: T4, type II TGFβ receptor (UniProt P37173 23-567, limits assumed); test: GST-TRAP pull-down from lysate of cells without HIS-TRIP, Western
T4 construct: From lysate of transfected cells; also called TGFβRII; TGFβ type II receptor
T4 sequence (P37173 23-567 limits assumed): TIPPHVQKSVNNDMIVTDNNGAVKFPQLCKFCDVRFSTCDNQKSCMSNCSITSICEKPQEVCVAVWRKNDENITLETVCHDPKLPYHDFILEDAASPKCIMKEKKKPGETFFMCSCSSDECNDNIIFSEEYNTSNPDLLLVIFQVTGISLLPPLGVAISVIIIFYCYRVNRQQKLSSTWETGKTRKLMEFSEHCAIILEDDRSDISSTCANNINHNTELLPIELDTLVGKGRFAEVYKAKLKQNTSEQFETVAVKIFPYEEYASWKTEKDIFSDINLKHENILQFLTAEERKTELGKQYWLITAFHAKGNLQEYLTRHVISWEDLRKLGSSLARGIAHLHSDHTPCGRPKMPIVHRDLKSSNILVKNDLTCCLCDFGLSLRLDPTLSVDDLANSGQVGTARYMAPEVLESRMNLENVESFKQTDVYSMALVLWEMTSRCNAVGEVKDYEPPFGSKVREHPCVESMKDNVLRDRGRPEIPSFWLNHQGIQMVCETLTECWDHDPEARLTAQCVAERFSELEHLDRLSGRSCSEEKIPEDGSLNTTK
Method: (§2) The GST fusion proteins were pulled down by glutathione coated beads (Amersham) in 4° C. for 1 h then washed three times with NETN buffer (20 mM Tris/pH 8.0, 100 mM NaCl, 6 mM MgCl₂, 1 mM EDTA, 0.5% NP-40, 1 mM DTT, 8% glycerol, and 1 mM PMSF). The purified GST fusion proteins and beads were suspended in 100 μl NETN buffer. […] After incubating for 1 h at 4° C. with agitation, the glutathione-coated beads were washed with NETN buffer four times then the protein complexes were loaded in SDS-PAGE and visualized by using the ECL-plus method.
(§3) Detection of HIS-TRIP was performed with anti-HIS antibodies and detection of the TGFβRII and Smad 2 were performed with a commercially available antibodies. For these studies, all cells were transfected with the TGFβRII. […] The cells were lysed and the lysate incubated with glutathione beads. The beads were extensively washed and the proteins interacting with the beads were analyzed with Western analysis.

Smad 2 = molecular target: T5, Smad 2 (UniProt Q15796 2-467, limits assumed); test: as above
T5 construct: Detected by a bought antibody in the pull-down
T5 sequence (Q15796 2-467 limits assumed): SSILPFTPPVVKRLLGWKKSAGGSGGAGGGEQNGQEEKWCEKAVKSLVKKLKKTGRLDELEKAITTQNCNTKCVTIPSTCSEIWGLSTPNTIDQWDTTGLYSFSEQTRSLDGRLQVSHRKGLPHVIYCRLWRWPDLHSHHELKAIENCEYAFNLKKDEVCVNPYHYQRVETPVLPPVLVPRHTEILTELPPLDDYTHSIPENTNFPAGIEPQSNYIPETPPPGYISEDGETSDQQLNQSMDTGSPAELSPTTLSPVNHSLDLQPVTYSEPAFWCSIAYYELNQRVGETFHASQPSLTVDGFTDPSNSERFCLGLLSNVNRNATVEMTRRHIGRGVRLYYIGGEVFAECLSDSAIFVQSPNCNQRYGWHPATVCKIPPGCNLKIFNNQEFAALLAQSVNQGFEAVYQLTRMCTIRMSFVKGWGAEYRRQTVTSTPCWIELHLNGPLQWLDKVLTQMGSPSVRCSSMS
Method: as §2, §3

[4] = molecular target: T6, VP-16-AD-GPC412 (VP-16-AD fused to GPC4 deficient in the 12 amino acids of Clone 5) (human, UniProt O75487 19-556); test: mammalian two-hybrid luciferase assay
T6 construct: also called 12 amino acid deficient version of GPC4
T6 sequence: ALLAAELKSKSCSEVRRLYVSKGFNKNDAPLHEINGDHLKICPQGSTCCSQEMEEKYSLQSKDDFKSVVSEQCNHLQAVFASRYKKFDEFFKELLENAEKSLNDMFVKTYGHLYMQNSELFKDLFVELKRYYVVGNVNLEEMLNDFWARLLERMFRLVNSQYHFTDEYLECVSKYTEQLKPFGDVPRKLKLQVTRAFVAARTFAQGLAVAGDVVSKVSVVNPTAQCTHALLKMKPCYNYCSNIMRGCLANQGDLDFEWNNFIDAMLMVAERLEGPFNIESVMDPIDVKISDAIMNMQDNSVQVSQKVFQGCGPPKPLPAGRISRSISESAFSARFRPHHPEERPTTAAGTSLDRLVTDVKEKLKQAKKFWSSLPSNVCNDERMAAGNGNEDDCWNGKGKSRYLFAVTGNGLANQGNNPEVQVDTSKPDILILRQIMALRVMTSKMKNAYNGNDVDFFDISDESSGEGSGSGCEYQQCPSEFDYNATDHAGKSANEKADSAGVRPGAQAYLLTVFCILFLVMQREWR

B1: M13 phage clone displaying SEQ ID NO:21 (peptide)
peptide: SQWHPRSASYPM
notes: also called ID No. 21; not shown: M13 phage coat protein carrying the random 12-mer; not specified
[1]
  fold increase in affinity for TRAP over wild type phage: 40 fold
[2]
  Fre (frequency among 44 sequenced clones after bio-panning with TRAP): 4 of 44 clones

B2: M13 phage clone displaying SEQ ID NO:22 (peptide)
peptide: TPSLPPTMFRLT
notes: also called ID No. 22; not shown: M13 phage coat protein carrying the random 12-mer; not specified
[1]
  fold increase in affinity for TRAP over wild type phage: 40 fold
[2]
  Fre (frequency among 44 sequenced clones after bio-panning with TRAP): 4 of 44 clones

B3: Clone 5 phage (M13 phage displaying the 12-mer TPLSYLKGLVTV) (peptide)
peptide: TPLSYLKGLVTV
modifications: also: displayed on M13 phage coat protein (protein and linker not given here)
notes: also called GPC4 phage (Clone 5); ID No. 23; not shown: M13 phage coat protein carrying the random 12-mer
Bovine serum albumin
  binding result: no binding (tested: 5 ug loaded)
RNase A
  binding result: no binding (tested: 5 ug loaded)
[2]
  Fre (frequency among 44 sequenced clones after bio-panning with TRAP): 15 of 44 clones
[3]
  Kd: 0.11 nM

B4: GST-TRAP fusion protein (other)
chain: ATPALRFVAVGDWGGVPNAPFHTAREMANAKEIARTVQILGADFILSLGDNFYFTGVQDINDKRFQETFEDVFSDRSLRKVPWYVLAGNHDHLGNVSAQIAYSKISKRWNFPSPFYRLHFKIPQTNVSVAIFMLDTVTLCGNSDDFLSQQPERPRDVKLARTQLSWLKKQLAAAREDYVLVAGHYPVWSIAEHGPTHCLVKQLRPLLATYGVTAYLCGHDHNLQYLQDENGVGYVLSGAGNFMDPSKRHQRKVPNGYLRFHYGTEDSLGGFAYVEISSKEMTVTYIEASGKSLFKTRLPRRARP
notes: also called 'GST' tagged TRAP; recombinant GST-TRAP; not shown: glutathione S-transferase tag (Amersham Pharmacia GST system)
Type II TGFβ receptor
  binding result: no binding
Smad 2
  binding result: no binding

B5: GAL-4-BD-TRAP fusion protein (other)
chain: MKLLSSIEQACDICRLKKLKCSKEKPKCAKCLKNNWECRYSPKTKRSPLTRAHLTEVESRLERLEQLFLLIFPREDLDMILKMDSLQDIKALLTGLFVQDNVNKDAVTDRLASVETDMPLTLRQHRISATSSSEESSNKGQRQLTVSATPALRFVAVGDWGGVPNAPFHTAREMANAKEIARTVQILGADFILSLGDNFYFTGVQDINDKRFQETFEDVFSDRSLRKVPWYVLAGNHDHLGNVSAQIAYSKISKRWNFPSPFYRLHFKIPQTNVSVAIFMLDTVTLCGNSDDFLSQQPERPRDVKLARTQLSWLKKQLAAAREDYVLVAGHYPVWSIAEHGPTHCLVKQLRPLLATYGVTAYLCGHDHNLQYLQDENGVGYVLSGAGNFMDPSKRHQRKVPNGYLRFHYGTEDSLGGFAYVEISSKEMTVTYIEASGKSLFKTRLPRRARP
notes: Expressed inside transfected cells
[4]
  binding result: no binding
